The numbers were not newly measured in patent US20030232389A1, “Urokinase peptide structure mimetics” (priority 2000, published 2003), which cites them from elsewhere.

The target of the data set is uPAR (uPA receptor) (Homo sapiens, UniProt Q03405). To be noted: cyclic disulfide peptide mimicking loop B of the uPA growth factor domain; value from German patent application 199 33 701.2.

Positions of bridges follow the written chain, without caps; N, C: chain ends. Non-standard residues stand in square brackets, D forms with d. No end group written: not given here.

Sequence of uPAR (uPA receptor) (Q03405 23-305): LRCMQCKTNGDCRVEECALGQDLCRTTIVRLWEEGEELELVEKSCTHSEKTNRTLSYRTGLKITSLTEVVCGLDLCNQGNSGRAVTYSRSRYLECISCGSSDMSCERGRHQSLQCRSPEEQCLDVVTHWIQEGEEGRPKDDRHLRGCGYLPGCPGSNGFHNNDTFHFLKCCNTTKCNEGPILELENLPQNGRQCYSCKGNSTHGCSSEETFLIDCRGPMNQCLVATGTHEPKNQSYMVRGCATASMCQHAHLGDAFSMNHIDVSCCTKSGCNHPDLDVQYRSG

Turning to “cyclo[1,9] D-Cys-Asn-Lys-Tyr-Phe-Ser-Asn-Ile-Cys-Trp ([dC]NKYFSNICW; disulfide 1-9) [cyclo[21,29][D-Cys21Cys29]-uPA21-30]”, the IC50 – broadly, the concentration at which inhibition is half-maximal – is 78 nM.
